Assay results: patent publication US12715905B2, “Methods of characterizing and purifying VEGF receptor fusion protein” (Regeneron Pharmaceuticals, Inc., priority 2023, dated 2026)
Where a SMILES comes first, the peptide text is derived from it. [ ]: non-standard residue; d: D form. The star is where a group is joined. Sta = CC(C)C[C@H](N)[C@@H](O)CC(=O)O; Isovaleryl = CC(C)CC(=O)*

What was measured:
[1] = test system: cathepsin D; assay: Stability observation in presence and absence of inhibitor pepstatin A (SE-UPLC HMW, CE-SDS NR1); assay type: physicochemical, Chinese hamster
Method: Formulated Drug Substance with high (pre-optimization) and low (post-optimization) cathepsin D were blended to achieve various levels of cathD (FIG. 35B). These mixtures were prepared to compare to cathepsin D levels below, at, and above the highest known levels that were observed post-optimized IVT and had acceptable stability performance. The blended material was put on 25° C. stability observation in both the presence and absence of the inhibitor pepstatin A (FIG. 35A).
The Drug Substance Intermediate from two Lots was placed on stability observation at 25° C. in the presence (open triangle) and absence (closed triangle) of the inhibitor pepstatin A for 6 months (FIG. 36).
Samples were placed on 25° C. and 5° C. stability observation in the presence and absence of cathepsin D inhibitor. HMW formation was analyzed by SE-UPLC and NR1 formation was analyzed by CE-SDS.

[2] = test system: cathepsin D; assay: Protease inhibitor confirmation study: pepstatin A added to DSI samples, NR-1 band and Y/L clipping; assay type: biochemical, Chinese hamster; conditions: DSI samples from both facilities, pepstatin A added at 37° C., assessed at day 3 and day 5
Method: Once cathepsin D was identified to be a potential reason for the cleavage of aflibercept, a cathepsin D inhibitor was used to confirm the finding. AEBSF and Aprotinin bovine lung (serine protease inhibitors), E64 and Leupeptin hemisulfate (cysteine protease inhibitors) and pepstatin A (an aspartic protease inhibitor) were evaluated for their ability to inhibit activity of cathepsin D.
To the samples from lots from both the facilities containing DSI at t=0, pepstatin A was added at 37° C. and % of NR-1 band formed was assessed at day 3 and day 5.

[3] = test system: cathepsin D; assay: Impact of pH on NR-1 band formation in DSI incubated at 37° C.; assay type: physicochemical, Chinese hamster
Method: Testing of DSI samples from both facilities A and B for aflibercept production also show similar results.
The impact of pH is so significant that use of different buffers can also show a difference in the Y92L93 clipping observed during the production of aflibercept. For example, citric acid was employed at facility B to achieve a pH of 6.1 and sodium citrate was employed at facility A to achieve a pH of 6.2, despite other conditions remaining the same (i.e., incubation of DSI at 37° C. for 12 days, intermediate time point taken at 3rd and 6th day). While the difference in the pH is 0.1, the effect through cathepsin D based clipping is notable over time (data not shown).
All samples were incubated at 37° C. for 12 days, intermediate time point taken at 3rd and 6th day.
Target sequence in this assay (G3I4W7 65-408 limits assumed): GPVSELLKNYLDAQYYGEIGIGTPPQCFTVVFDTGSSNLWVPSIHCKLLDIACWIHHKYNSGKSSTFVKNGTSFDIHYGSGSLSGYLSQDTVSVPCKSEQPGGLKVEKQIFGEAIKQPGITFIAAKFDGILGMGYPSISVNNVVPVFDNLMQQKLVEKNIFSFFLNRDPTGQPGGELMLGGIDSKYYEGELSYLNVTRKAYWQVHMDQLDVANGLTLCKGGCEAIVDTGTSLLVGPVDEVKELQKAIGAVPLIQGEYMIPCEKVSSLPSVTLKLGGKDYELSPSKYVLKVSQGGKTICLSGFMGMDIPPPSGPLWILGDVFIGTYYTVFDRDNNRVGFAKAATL

[4] = Mass spectrometry analysis of Y92/L93 clipping in stability lots; assay type: physicochemical; conditions: high concentration (114.3 mg/mL) lot vs low concentration lots, accelerated stability
Method: The analysis was performed by denaturing SEC-MS, which can provide (partial) liquid chromatography separation between the intact receptor domain and NR1 species (with Fc removed) for the successful detection of the low levels of NR1 species. The DS and DSI sample from lots A and B were analyzed using a modified mass analysis (samples 1-7 are representative of both DS and DSI samples from both the lots). The modification made is possible to differentiate the peaks of the receptor domain of aflibercept and truncated aflibercept.
Mass spectrometry analysis further confirmed (3.4×) higher levels of Y92/L93 clipping for the unexpected aflibercept high concentration lot when compared to […] clipping observed for low concentration lots (FIG. 18). Increased NR1 due to cathepsin D cleavage at Y92/L93 of aflibercept was linked to increased aggregate formation (FIG. 19 and FIG. 20).

[5] = target: cathepsin D; assay: Octet HTX interaction analysis of aflibercept and cathepsin D; assay type: binding, Chinese hamster
Method: FIG. 31 […], wherein cathepsin D was immobilized to the biosensor, while VEGF-Trap was the analyte (A), according to an exemplary embodiment.
Interaction analysis was carried out using OCTET HTX sensorgram.
Since cathepsin D can “piggy back” onto aflibercept during purification of aflibercept, in order to reduce the interactions, use of surfactants was implemented.
Target sequence in this assay (G3I4W7 entry or part of it F138E): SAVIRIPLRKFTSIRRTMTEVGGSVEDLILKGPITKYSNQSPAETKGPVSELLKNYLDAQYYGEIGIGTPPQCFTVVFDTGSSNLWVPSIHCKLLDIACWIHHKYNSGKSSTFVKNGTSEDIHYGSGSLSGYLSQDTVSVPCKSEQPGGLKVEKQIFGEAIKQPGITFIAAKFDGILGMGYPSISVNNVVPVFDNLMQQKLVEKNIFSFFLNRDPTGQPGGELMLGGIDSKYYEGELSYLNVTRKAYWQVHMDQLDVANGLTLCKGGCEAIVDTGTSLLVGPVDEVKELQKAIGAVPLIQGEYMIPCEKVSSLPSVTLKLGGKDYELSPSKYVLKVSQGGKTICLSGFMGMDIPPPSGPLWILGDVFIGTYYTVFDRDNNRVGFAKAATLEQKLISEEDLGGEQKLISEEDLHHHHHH

[6] = test system: cathepsin D; assay: Cathepsin D spike-in into aflibercept DS, Y92L93 clipping / NR-1 band; assay type: physicochemical, Chinese hamster
Method: Production of the Y92L93 clipping was attempted using cathepsin D. To a sample of aflibercept DS, cathepsin D was added and incubated at 37° C. at pH 6.1. Different concentrations of cathepsin D were evaluated, including 1 ppm, 2 ppm, 5 ppm, and 10 ppm.
Since the failure of cathepsin D to affect the truncation could be due to reaction conditions, the experiment was repeated at a lower pH since cathepsin D needs to be activated by lower pH for conformational switch to mature cathepsin D. Cathepsin-D is an aspartic protease that depends critically on protonation of its active site Asp residue. Along with Asp-protonation, lower pH also leads to conformational switch in mature cathepsin-D. See Briozzo P et al. (1988). Cancer Research. 48 (13): 3688-92.
To test the DS samples with the presence of activated cathepsin D, to a sample from DS at t=0, 100 ppm acidified cathepsin D was added at 37° C. and incubated for 5 hours.
The clipping activity was also observed at neutral condition when acidified […]) was added.
Target sequence in this assay (as listed by the source): as the sequence (G3I4W7 65-408 limits assumed) above

[7] = Stability study of aflibercept lots at 5° C. and 25° C. (CE-SDS, SE-UPLC); assay type: physicochemical
Method: This study investigated how a residual HCP can piggy-back through the aflibercept DSI manufacturing process.
Drug substance intermediate (DSI) lots containing aflibercept at two different concentrations (40 mg/ml and 114.3 mg/ml) were evaluated at 5° C. and 25° C.
Using the modified SEC purification, the high concentration DSI lot was purified downstream using SEC. […] (as mentioned in Example 10).
An earlier cut in time for the eluting peak was implemented for the SEC step for the higher concentration DSI lots (FIG. 28) resulting in increased clearance and subsequently lower levels of cathepsin D at FDS (FIG. 29). […] Accelerated stability (25′C for 6 months) was investigated. The cumulative increase in HMW (FIG. 33A) and R1 (FIG. 33B) was represented over that 6 months by calculation of the slope. […] The DSI was analyzed for stability at 25° C. for 6 months. The rate of NR1 species was calculated from T0 to T6 months and plotted against the cathepsin D value obtained by ELISA (FIG. 34A), Activity Assay (FIG. 34B) and Mass Spectrometry (FIG. 34C).

[8] = DSI from two lots, 25° C., 6 months, pepstatin A present vs absent

Compound	HMW formation (SE-UPLC) [1, 8]	NR1 formation (CE-SDS) [1, 8]	NR-1 band formation [2]	Y/L clipping [2]	formation of NR1 ([1]; FDS, 5° C., inactive cathepsin D (inhibitor and/or low temperature), up to 18 months)	NR-1 band formation ([3]; DSI sample, pH 4.5 compared to pH 6.3)	NR-1 band formation ([3]; pH 6.45)	92Y93L clipping ([3]; pH increased to 6.45 by adding sodium citrate, 37° C. for 12 days)	levels of Y92/L93 clipping, high concentration lot compared to low concentration lots [4] [×]	KD of aflibercept-cathepsin D interaction, change ([5]; about 0.003% PS20 (polysorbate 20))	binding to Cathepsin D ([5]; range of VEGF-Trap concentration)	interaction between aflibercept and cathepsin D ([5]; range of buffer pH)	Y/L clipping ([6]; DS at t=0, 100 ppm acidified cathepsin D, 37° C., 5 hours)	NR-1 band formation and Y/L cleavage ([6]; aflibercept DS, 0.5-20 ppm acidified cathepsin D, neutral condition, 7 days at 37° C.)	Y/L clipping ([6]; aflibercept DS, 10 ppm Cathepsin D spiked in, pH 6.1, 37° C., 8 days)	Y/L clipping ([6]; aflibercept DS, 100 ppm Cathepsin D spiked in, pH 6.1, 37° C., 8 days) [%]	rates of aggregation and fragmentation ([7]; 114.3 mg/mL formulated drug substance (FDS) lot, accelerated stability 25° C. for 6 months)	fragmentation ([7]; 5° C. condition, through the 12-month time point)	LMW levels ([7]; FDS lots after modified SEC purification (earlier cut), 25° C. at 3 months)
CC(C)CC(=O)N[C@H](C(=O)N[C@H](C(=O)N[C@@H](CC(C)C)[C@@H](O)CC(=O)N[C@@H](C)C(=O)N[C@@H](CC(C)C)[C@@H](O)CC(=O)O)C(C)C)C(C)C [pepstatin A] (Isovaleryl-VV[Sta]A[Sta]-OH)	reduced HMW formation	reduced NR1 formation	NR-1 band increase stopped	Y/L clipping ceased															
aflibercept					no formation of NR1	significant NR-1 band	Effectively no NR-1 band is formed	stopped the 92Y93L clipping	3.4	about 4 fold	concentration dependent binding	increased with reducing buffer pH	led to Y/L clipping of aflibercept	correlation between spiked-in cathepsin D and NR-1 band formation, and Y/L cleavage	Negligible	< 1	increased rates of aggregation and fragmentation	absence of fragmentation	in line with comparators
